The numbers were not newly measured in article PMC1513386, which cites them from elsewhere.

Read-outs that look alike come from different tables or passages of the source.

Targets include Asp83 (UniProt position 111, EYYVVDSWGTY); Asp11 (UniProt position 39, WQNWTDGGGIV); Glu172 (UniProt position 200, QVMATEGYQSS); Asp106 (UniProt position 134, DGGTYDIYTTT); Asp59 (UniProt position 80, VCCSTDKCN--); Asp26 (UniProt position 26, KLVVVDFSATW); Glu68 (UniProt position 68, QDVASECEVKC).
Another data set has as its target Glu96 (UniProt position 123, DHYLLEFPTFP). Briefly: NMR.
Another data set concerns the target Glu115 (UniProt position 142, SKKPKENPGPA). Briefly: NMR.
A further data set deals with Glu73 (UniProt position 120, GRTWREADINY). Conditions: not stated (values are paired with the folded structure 1A2P; ref 20 covers native and denatured states).
For data set [1], the target named is Asp101 (UniProt position 148, IYKTTDHYQTF). Conditions: not stated (values are paired with the folded structure 1A2P; ref 20 covers native and denatured states).
Another data set deals with Asp93 (UniProt position 140, ILYSSDWLIYK). The settings on record: not stated (values are paired with the folded structure 1A2P; ref 20 covers native and denatured states).
For a further data set, the target named is Asp54 (UniProt position 101, KSIGGDIFSNR). The settings on record: not stated (values are paired with the folded structure 1A2P; ref 20 covers native and denatured states).
For a further data set, the target named is Asp21 (UniProt position 41, VSILSDASFNQ). The experiment in a line: NMR.
A further data set deals with Asp72 (UniProt position 92, NPPNCDLTVPT). Briefly: NMR.
The next data set deals with Asp30 (UniProt position 50, NQCSTDSGYSM). Briefly: NMR.
Data set [2] concerns the target Asp101 (UniProt position 129, GTVKSDGGTYD).
The target in a further data set is Asp44 (UniProt position 44, AARQPDLIPLL). Briefly: NMR.
In a further data set the target is Glu37 (UniProt position 37, GGKFLEGAARQ). Briefly: NMR.
The target of another data set is Asp61 (UniProt position 61, VMGLVDAIPMI). Briefly: NMR.
The next data set addresses Glu2 (UniProt position 2, ----MENLNMD). The experiment in a line: NMR.
The target of another data set is Asp7 (UniProt position 7, ENLNMDLLYMA). Briefly: NMR.
The next data set deals with Glu35 (UniProt position 53, CAAKFESNFNT). The experiment in a line: NMR.
The next data set addresses Asp66 (UniProt position 84, RWWCNDGRTPG). Briefly: NMR.
In another data set the target is Asp18 (UniProt position 36, KRLGLDNYRGY). Briefly: NMR.
The next data set has as its target Asp87 (UniProt position 105, ALLSSDITASV). Briefly: NMR.
A further data set has as its target Asp48 (UniProt position 66, TNRNTDGSTDY). Briefly: NMR.
A further data set addresses Glu7 (UniProt position 25, VYGRCELAAAM). The experiment in a line: NMR.
The next data set has as its target Asp148 (UniProt position 148, NPTLEDTGYQV). The experiment in a line: NMR.
A further data set has as its target Asp70 (UniProt position 70, VILSTDSQYVR). Briefly: NMR.
Another data set addresses Asp10 (UniProt position 10, VEIFTDGSCLG). The experiment in a line: NMR.
The next data set has as its target Asp102 (UniProt position 102, PVKNVDLWQRL). Briefly: NMR.
Another data set concerns the target Glu6 (UniProt position 6, MVKQIESKTAF). The settings on record: listed under PDB 1TRS; redox state not stated in the article, and 1TRS is the oxidised form (inferred).
[3] abbreviates: listed under PDB 1TRS, redox state not stated in the article, and 1TRS is the oxidised form (inferred).
Where [4] appears, read: listed under PDB 1TRW, redox state not stated in the article, and 1TRW is the reduced form (inferred).

Regarding “Alpha-sarcin (cytotoxic ribonuclease) (Aspergillus giganteus)”, the pKa (commonly the negative logarithm of the acid dissociation constant) in the data set with Glu96 is 5.10; with Glu115, 4.90.

Regarding “Barnase (ribonuclease) (Bacillus amyloliquefaciens)”, the pKa with Glu73 is reported as 2.10; with Asp101 [1], 2.00; with Asp93, 2.00; in the data set with Asp54 it was 2.00.

Take “Beta-elicitin cryptogein (Phytophthora cryptogea)”: the pKa in the data set with Asp21 is 2.50; with Asp72 it was 2.60; with Asp30, 2.50.

For “Endo-1,4-beta-xylanase (Bacillus circulans xylanase) (Bacillus circulans)”, the pKa with Asp83 is 2.00; with Asp11, 2.50; with Glu172, 6.70; with Asp101 [2], 2.00; in the data set with Asp106, 2.70.

“F1Fo ATP synthase subunit c (Escherichia coli)”: the pKa is 5.60 with Asp44; 5.50 with Glu37; 7.00 in the data set with Asp61; 5.50 in the data set with Glu2; 5.60 with Asp7.

As for “Lysozyme C (turkey egg white) (Meleagris gallopavo)”, the pKa is 6.10 with Glu35; 2.00 in the data set with Asp66; 2.70 with Asp18; 2.10 with Asp87; 2.50 in the data set with Asp48; 2.70 with Glu7.

Turning to Ribonuclease HI (Escherichia coli), the pKa is reported as 2.00 with Asp148, 2.60 in the data set with Asp70, 6.10 with Asp10 and 2.00 with Asp102.

Turning to “Snake cardiotoxin (PDB 1KXI, cardiotoxin V / A5) (Naja atra)”, in the data set with Asp59, the pKa is recorded as 2.30.

Regarding Thioredoxin (Homo sapiens), the pKa with Asp26 (setting [3]) is given as 8.10; with Asp26 (setting [4]) it was 9.90; with Glu6, 4.90; with Glu68 (setting [3]), 5.10; with Glu68 (setting [4]), 4.90.
